Results from patent publication US20010034432A1.

What was measured:
[1] = target: cleavage-defective, cytoplasmic tail-truncated gp160 envelope glycoprotein of the YU2 HIV-1 primary (HIV-1 YU2 primary isolate; bovine) (UniProt P35961); test: FACS binding curves on gp160-expressing 293T cells and gp160-proteoliposomes
[2] = target: human CCR5 with a C-terminal glycine residue followed by the C9 nonapeptide tag (expressed from the (human; bovine) (UniProt P51681); test: immunoprecipitation from 35S-labeled Cf2Th/PACH/synCCR5 lysate in 1% Fos-Choline-14, SDS-PAGE
[3] = target: human CCR5 with a C-terminal glycine residue followed by the C9 nonapeptide tag (expressed from the (human; bovine) (UniProt P51681); test: immunoprecipitation from 35S-labeled Cf2Th/PACH/synCCR5 lysate in 1% DHPC, SDS-PAGE
[4] = target: human CCR5 with a C-terminal glycine residue followed by the C9 nonapeptide tag (expressed from the (human; bovine) (UniProt P51681); test: immunoprecipitation from 35S-labeled Cf2Th/PACH/synCCR5 lysate in 1% Cymal-5, SDS-PAGE

Chain of UniProt P51681 (P51681 whole entry): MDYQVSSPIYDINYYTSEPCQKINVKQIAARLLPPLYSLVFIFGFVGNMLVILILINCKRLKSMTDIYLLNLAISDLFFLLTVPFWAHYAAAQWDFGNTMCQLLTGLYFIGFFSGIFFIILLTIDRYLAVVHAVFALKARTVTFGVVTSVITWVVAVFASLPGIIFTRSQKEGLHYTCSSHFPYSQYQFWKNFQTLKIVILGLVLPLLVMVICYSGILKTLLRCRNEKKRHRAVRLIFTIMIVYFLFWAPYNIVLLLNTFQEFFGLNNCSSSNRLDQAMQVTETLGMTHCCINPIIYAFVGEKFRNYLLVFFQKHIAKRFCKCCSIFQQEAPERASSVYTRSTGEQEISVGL
Chain of UniProt P35961 (P35961 whole entry, the tested form may be a part): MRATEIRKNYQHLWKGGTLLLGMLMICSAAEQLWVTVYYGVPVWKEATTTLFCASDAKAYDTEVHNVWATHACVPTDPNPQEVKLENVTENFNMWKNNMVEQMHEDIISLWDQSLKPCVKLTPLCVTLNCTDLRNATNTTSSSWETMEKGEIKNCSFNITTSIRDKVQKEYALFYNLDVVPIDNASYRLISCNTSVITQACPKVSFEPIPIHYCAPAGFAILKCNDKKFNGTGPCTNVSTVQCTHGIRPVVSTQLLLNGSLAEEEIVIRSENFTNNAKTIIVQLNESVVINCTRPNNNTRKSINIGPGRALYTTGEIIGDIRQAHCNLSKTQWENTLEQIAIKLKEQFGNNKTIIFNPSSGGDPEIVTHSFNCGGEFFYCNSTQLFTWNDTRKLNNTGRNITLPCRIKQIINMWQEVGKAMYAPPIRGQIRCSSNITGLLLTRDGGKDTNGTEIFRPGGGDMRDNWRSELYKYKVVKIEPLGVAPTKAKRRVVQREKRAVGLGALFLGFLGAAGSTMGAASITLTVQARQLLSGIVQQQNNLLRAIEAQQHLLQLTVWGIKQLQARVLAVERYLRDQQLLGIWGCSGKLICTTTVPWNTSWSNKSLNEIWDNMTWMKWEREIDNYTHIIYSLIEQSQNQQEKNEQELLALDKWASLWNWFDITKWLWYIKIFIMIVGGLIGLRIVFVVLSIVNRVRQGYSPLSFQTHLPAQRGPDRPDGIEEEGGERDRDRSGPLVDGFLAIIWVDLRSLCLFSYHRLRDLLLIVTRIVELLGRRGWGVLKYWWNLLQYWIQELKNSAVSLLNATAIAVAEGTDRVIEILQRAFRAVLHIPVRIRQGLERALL

Substance | EC50 [1] [µg/mL] | percentage of conformationally intact CCR5 (CCR5 precipitated by 2D7 relative to that precipitated by 1D4) [2] [%] | percentage of conformationally intact CCR5 (CCR5 precipitated by 2D7 relative to that precipitated by 1D4) [3] [%] | percentage of conformationally intact CCR5 (CCR5 precipitated by 2D7 relative to that precipitated by 1D4) [4] [%]
CD4BS antibody IgGb12 | < 1 |  |  | 
2D7 anti-CCR5 antibody (conformation-dependent) |  | 13 | 10 | 98
